The values that follow come from paper doi:10.1101/2021.01.13.426511.

This experiment addresses phospho His-cSrcKD-K295M/Y416F (human). Put plainly: BLI.

The Kd is a measure of binding affinity in units of concentration. Low values mean higher affinity, high ones lower affinity. One may read the kon as the rate constant with which the complex forms. Higher therefore signals faster complex formation. “rPTPεD1-C335S (D1 domain of receptor protein tyrosine phosphatase epsilon, substrate-trapping mutant) (domain or fragment)” yielded an equilibrium dissociation constant (Kd) of 34 µM and an on-rate (kon) of 998 M⁻¹ s⁻¹.
Take “rPTPεD1-C335S/R220E (domain or fragment)”: the dissociation constant (Kd) worked out at 257 µM and the on-rate constant (kon) is 128 M⁻¹ s⁻¹.
